Source: patent US20260184748A1 (University of Pennsylvania, published 2026)
Where no end group is shown, it is not given here.

Tests used:
Assay in all cases: cell-based or functional assay
PTGER4 = PTGER4 (UniProt P35408 1-488)
CNR1 = CNR1 (UniProt P21554 1-472)
CCR5 = CCR5 (UniProt P51681 1-352)
SSTR1 = SSTR1 (UniProt P30872 1-391)
BRS3 = molecular target: T1, BRS3 (UniProt P32247 1-399)
T1 sequence (looked up): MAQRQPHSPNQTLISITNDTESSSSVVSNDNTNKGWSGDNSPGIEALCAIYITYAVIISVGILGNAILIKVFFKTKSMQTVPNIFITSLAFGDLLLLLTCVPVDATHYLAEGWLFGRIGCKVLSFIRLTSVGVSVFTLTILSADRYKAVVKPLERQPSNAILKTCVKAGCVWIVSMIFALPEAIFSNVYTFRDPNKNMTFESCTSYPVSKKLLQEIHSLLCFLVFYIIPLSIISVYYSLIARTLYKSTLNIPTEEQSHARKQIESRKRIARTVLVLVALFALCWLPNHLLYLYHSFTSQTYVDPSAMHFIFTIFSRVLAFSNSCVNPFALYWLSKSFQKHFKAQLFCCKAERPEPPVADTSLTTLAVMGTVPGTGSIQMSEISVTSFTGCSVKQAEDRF

MRGPRX2 = molecular target: T2, MRGPRX2 (UniProt Q96LB1 1-330)
T2 sequence (looked up): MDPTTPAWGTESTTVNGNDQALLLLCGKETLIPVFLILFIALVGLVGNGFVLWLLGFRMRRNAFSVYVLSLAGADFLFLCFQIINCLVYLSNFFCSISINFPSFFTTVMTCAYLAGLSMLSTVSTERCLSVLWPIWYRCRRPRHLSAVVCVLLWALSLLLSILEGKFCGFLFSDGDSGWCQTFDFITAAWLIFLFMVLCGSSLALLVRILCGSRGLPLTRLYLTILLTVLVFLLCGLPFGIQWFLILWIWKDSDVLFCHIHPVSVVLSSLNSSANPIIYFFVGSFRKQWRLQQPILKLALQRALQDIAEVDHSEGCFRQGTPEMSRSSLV

PROKR2 = PROKR2 (UniProt Q8NFJ6 1-384)
PROKR2, sequence (Q8NFJ6 whole entry): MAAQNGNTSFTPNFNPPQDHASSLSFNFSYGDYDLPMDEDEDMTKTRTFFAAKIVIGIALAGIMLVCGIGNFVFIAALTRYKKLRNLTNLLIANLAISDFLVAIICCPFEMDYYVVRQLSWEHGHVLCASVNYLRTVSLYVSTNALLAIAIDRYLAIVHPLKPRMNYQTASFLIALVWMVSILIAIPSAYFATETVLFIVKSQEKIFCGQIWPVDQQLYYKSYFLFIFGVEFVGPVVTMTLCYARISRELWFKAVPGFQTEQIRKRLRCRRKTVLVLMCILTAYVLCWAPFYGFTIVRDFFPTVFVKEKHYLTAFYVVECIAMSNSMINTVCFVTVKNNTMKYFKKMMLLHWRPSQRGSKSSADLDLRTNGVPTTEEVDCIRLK

CMKLR1 = molecular target: T3, CMKLR1 (UniProt Q99788 1-373, limits assumed)
T3 sequence (looked up): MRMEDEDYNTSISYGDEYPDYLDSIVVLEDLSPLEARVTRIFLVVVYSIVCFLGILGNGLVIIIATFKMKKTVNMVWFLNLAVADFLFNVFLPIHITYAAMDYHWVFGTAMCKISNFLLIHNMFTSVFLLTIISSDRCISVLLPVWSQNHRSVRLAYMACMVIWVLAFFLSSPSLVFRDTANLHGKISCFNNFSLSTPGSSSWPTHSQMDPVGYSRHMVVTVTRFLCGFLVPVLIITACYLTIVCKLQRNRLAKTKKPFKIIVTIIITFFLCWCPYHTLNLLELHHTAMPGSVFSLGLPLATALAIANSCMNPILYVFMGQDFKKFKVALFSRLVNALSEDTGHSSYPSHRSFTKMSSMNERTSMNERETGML

CXCR7 = CXCR7 (UniProt P25106 1-362)
CXCR7, sequence (P25106 whole entry): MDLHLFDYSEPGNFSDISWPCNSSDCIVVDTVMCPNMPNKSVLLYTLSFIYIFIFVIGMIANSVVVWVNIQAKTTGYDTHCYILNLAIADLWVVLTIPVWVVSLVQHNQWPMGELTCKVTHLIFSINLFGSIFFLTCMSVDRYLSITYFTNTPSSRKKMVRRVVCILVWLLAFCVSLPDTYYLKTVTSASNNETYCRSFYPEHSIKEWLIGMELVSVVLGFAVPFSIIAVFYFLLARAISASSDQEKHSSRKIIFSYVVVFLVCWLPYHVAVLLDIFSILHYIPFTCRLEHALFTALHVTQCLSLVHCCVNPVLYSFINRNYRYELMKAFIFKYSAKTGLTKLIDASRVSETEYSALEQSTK

AVPR1B = molecular target: T4, AVPR1B (UniProt P47901 1-424)
T4 sequence (looked up): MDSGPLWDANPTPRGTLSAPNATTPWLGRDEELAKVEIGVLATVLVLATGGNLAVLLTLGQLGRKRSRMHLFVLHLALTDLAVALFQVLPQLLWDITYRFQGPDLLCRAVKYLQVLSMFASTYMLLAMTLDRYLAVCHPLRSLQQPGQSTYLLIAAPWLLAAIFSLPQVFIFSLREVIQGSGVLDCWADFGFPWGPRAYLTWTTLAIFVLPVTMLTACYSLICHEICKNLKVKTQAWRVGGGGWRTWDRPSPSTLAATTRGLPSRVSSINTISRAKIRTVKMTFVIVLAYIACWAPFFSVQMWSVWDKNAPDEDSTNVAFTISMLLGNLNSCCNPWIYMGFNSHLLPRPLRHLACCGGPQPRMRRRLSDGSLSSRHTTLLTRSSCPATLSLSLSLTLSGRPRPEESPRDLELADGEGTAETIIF

VIPR1 = molecular target: T5, VIPR1 (UniProt P32241 31-457)
T5 sequence (looked up): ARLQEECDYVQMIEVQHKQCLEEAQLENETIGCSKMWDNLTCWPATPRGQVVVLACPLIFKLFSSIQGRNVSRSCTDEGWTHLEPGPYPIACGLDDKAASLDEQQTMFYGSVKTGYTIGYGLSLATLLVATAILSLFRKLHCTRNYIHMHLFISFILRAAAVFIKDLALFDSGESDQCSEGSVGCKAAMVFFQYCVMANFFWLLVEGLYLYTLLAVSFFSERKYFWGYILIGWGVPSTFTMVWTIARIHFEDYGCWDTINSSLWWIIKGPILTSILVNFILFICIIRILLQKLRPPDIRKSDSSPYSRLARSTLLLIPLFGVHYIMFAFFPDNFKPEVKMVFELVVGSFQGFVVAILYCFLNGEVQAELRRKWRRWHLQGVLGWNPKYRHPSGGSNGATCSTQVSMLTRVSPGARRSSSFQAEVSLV

CNR2 = CNR2 (UniProt P34972 1-360)
CNR2, sequence (P34972 whole entry): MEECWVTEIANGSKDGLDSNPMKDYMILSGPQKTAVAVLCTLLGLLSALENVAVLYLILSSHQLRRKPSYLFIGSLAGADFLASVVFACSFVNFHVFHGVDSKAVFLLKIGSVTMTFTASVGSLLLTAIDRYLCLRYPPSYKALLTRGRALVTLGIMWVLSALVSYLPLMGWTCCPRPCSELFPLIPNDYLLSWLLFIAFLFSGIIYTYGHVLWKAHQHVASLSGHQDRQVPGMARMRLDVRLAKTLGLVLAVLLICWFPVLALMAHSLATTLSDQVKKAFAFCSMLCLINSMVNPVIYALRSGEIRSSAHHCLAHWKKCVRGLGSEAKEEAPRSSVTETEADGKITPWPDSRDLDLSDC

LHCGR = LHCGR (UniProt P22888 27-699)
LHCGR, sequence (P22888 27-699 limits assumed): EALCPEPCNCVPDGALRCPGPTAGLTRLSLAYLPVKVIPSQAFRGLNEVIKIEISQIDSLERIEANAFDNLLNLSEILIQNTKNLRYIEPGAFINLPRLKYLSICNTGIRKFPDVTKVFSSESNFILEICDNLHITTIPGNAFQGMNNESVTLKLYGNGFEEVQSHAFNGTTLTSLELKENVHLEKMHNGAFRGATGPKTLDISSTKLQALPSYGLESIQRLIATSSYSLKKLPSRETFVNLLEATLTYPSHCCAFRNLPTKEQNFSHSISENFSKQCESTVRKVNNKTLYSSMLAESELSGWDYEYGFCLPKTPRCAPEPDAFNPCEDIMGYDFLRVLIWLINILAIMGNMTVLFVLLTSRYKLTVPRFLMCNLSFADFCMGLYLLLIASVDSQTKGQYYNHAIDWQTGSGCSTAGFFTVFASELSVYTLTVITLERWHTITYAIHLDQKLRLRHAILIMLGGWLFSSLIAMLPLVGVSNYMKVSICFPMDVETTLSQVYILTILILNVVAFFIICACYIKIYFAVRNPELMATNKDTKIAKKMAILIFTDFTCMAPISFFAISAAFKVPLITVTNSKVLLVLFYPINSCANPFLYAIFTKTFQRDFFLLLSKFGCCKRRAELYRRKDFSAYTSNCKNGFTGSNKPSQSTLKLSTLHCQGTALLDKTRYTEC

NMU1R = molecular target: T6, NMU1R (UniProt Q9HB89 1-426, limits assumed)
T6 sequence (looked up): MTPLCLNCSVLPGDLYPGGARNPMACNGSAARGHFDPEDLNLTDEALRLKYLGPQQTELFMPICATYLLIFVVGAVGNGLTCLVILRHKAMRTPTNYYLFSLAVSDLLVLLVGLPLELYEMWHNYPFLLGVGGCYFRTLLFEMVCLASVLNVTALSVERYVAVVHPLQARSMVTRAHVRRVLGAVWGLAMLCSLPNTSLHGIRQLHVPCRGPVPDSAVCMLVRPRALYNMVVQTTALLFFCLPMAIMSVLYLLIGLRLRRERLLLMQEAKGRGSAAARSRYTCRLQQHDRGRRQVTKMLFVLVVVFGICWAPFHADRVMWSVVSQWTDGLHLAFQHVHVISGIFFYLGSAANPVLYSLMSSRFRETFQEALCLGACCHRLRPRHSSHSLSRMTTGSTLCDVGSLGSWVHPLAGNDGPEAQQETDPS

SSTR1, sequence (P30872 whole entry): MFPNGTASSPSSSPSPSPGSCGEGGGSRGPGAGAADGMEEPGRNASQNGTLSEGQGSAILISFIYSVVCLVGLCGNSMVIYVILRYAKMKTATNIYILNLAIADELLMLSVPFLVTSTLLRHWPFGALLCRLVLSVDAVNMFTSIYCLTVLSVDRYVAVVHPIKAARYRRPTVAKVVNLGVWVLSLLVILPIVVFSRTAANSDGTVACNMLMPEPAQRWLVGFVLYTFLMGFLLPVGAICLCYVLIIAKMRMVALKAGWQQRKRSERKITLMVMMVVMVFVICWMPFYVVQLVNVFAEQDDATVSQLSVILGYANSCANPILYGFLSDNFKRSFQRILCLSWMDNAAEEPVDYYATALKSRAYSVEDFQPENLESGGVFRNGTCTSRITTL
PTGER4, sequence (P35408 whole entry): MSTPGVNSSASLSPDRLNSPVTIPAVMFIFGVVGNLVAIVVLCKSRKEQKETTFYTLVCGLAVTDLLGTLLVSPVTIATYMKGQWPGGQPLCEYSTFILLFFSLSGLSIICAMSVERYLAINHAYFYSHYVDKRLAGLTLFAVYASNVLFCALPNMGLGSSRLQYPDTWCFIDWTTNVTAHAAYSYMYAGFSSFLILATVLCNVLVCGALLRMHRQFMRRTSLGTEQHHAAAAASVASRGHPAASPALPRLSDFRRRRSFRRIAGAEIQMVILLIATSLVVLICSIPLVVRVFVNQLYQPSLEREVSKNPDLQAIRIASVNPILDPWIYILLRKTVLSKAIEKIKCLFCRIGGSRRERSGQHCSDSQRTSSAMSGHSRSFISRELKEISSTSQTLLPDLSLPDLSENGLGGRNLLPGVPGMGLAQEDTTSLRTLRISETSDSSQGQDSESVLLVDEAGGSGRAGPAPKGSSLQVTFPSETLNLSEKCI
CCR5, sequence (P51681 whole entry): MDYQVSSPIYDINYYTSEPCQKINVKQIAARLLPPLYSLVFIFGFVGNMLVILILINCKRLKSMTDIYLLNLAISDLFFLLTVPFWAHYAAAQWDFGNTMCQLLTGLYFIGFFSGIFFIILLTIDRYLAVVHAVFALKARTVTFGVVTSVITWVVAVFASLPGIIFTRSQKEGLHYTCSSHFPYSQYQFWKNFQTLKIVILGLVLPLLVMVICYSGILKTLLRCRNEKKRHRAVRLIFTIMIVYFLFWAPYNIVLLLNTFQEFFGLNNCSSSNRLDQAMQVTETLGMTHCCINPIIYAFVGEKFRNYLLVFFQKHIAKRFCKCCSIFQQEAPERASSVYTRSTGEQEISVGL
CNR1, sequence (P21554 whole entry): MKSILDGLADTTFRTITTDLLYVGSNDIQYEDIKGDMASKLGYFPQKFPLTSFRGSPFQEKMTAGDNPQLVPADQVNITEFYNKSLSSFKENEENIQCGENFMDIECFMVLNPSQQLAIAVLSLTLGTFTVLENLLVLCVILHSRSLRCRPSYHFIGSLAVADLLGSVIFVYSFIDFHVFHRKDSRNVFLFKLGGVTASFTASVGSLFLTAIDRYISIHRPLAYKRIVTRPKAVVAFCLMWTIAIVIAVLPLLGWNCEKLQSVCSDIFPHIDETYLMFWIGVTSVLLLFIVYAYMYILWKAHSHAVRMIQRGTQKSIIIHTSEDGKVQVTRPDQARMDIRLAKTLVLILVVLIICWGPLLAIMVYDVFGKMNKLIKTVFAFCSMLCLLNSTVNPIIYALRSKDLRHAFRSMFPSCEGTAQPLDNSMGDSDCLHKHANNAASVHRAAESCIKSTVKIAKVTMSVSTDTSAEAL

Binder: QATVGDVNTDRPGLLDLK (also: synthesised on Rink amide resin, C-terminal amide not given here outright) [octadecaneuropeptide (ODN)]
- % Activity, arrestin, antagonist mode, 2.5 uM (PTGER4): -15.1%
- % Activity, arrestin, antagonist mode, 2.5 uM (CNR1): -37.5%
- % Activity, arrestin, antagonist mode, 2.5 uM (CCR5): -16.1%
- % Activity, arrestin, antagonist mode, 2.5 uM (SSTR1): -1.6%
- % Activity, arrestin, antagonist mode, 2.5 uM (BRS3): -5.8%
- % Activity, arrestin, antagonist mode, 2.5 uM (MRGPRX2): -23.5%
- % Activity, arrestin, antagonist mode, 2.5 uM (PROKR2): -17.5%
- % Activity, arrestin, antagonist mode, 2.5 uM (CMKLR1): -18.3%
- % Activity, arrestin, antagonist mode, 2.5 uM (CXCR7): -9.6%
- % Activity, arrestin, antagonist mode, 2.5 uM (AVPR1B): -25.7%
- % Activity, arrestin, antagonist mode, 2.5 uM (VIPR1): -11.6%
- % Activity, arrestin, antagonist mode, 2.5 uM (CNR2): 3.6%
- % Activity, arrestin, antagonist mode, 2.5 uM (LHCGR): 7.2%
- % Activity, arrestin, antagonist mode, 2.5 uM (NMU1R): -34.2%
